This passage reports amyloid nucleation score results from the supplement of paper PMC12042874.

± gives the uncertainty stated by the source.

The series in a line: amyloid nucleation score (Sup35N fusion, yeast selection) (log enrichment); library NNK1; higher = more nucleation; inactive = no reads after selection. The essentials:
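Output and input plasmid inserts were sequenced by Illumina after psi-negative yeast carrying Sup35N fused to peptides of 20 random codons had been induced 24 hours with 100 μM copper sulfate and grown 7 days at 30°C on medium lacking adenine and uracil. The nucleation score is the DiMSum log enrichment of output over input reads, centred on the mode score of non-aggregating sequences. Sequences with under 100 input reads were excluded.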
The substance LTITGSFIHPI registered an amyloid nucleation score of -0.739 ± 0.79.
Next, FFLILRVRLYCTSICQAYAN: 0.451 ± 0.48.
Next, DWSRQFYMFVNVKARLFRGT: -0.05 ± 0.69; ICSNVLFVLILEKEASFGCY: 4.21 ± 0.051; LSIRYWCYNLRLVQAHCFRV: -0.657 ± 0.56.
The same measure for RLSHKNGVCTLAFIYVPDNA: “inactive”; for CFVHLLGIIYLSLDRNYCRE: 0.272 ± 0.57; for LKRVGSNLNT: -0.229 ± 1.4.
Regarding DVFGLLSIYYR, the amyloid nucleation score came to 1.1 ± 0.57.
MDTFSIMTYLAWQSNELLLI yielded an amyloid nucleation score of 1.22 ± 0.23.
Next, HLRFYAYRGMGRPNFFLCFE: 0.183 ± 0.38; IQSSPIR: 0.464 ± 0.88.
The same measure for SSNFLRILIGTFVRYRV: 0.073 ± 0.37; for AIRSFRARIGN: 0.177 ± 1.2; for NCLNAMVWSLLMLTDHLAPQ: -0.157 ± 0.72.
The same measure for RDLTKSDLMSVNAYMVIYRW: 0.382 ± 0.31; for SKTEMSTTMFY: -0.037 ± 0.38; for GDSYVRHRMDP: “inactive”.
Substance HGRIGLVWESGKCMTYLREV yielded an amyloid nucleation score of 0.191 ± 0.37.
In the case of YQKTNPMELWLPSL, the amyloid nucleation score result was “inactive”.
Next, LILHSNSGFNGYWVSQWNTM: -0.304 ± 0.44.
The same measure for YMVYILSVCDLRFLWTRSGG: -0.053 ± 0.49; for VVSNTGSFSPVRMR: -0.117 ± 0.42; for PYDYRI: -0.503 ± 0.46.
Substance NRACRMMQWS registered an amyloid nucleation score of -0.441 ± 1.2.
The same measure for VYIYRSVPNTAPAPMIEKKD: -0.048 ± 1.2; for SFLDCLRCCKCAGMR: 1.5 ± 0.18; for ALVGMRQITEILVTRDRQWG: 0.332 ± 0.27.
The same measure for NIINLHYKYLVADVWGLKMF: -0.008 ± 0.93; for LLAVCYVIF: 1.98 ± 0.24; for EFQMLEFYRANLPSKSQNTL: -0.777 ± 0.43.
YTPGSGVLRAGTADQLMRNF: the amyloid nucleation score was found to be 0.522 ± 0.63.
The same measure for ALRIHGLCFEVVCMRIWSRR: 0.436 ± 0.46; for FWELECADIAVKSKGGCQGC: -0.402 ± 0.44; for PWTSHVNFRSSGYLSNCLNF: -0.145 ± 0.64.
Next, IPARTESDTRYMSMCGSNNQ: -0.317 ± 0.55; YQVPKKVAATIGTAWARKRA: 0.279 ± 0.29; VTYTISRELSFCPPITFGTL: 0.777 ± 0.73.
The same measure for RVFRASNDR: 0.241 ± 1.1; for TLEFLMPSYLFHLGRMVNLS: -0.927 ± 1.4.
For the substance GFSSMRYEGFGTGKCVDFLS, the amyloid nucleation score amounted to 0.281 ± 0.22.
Next, NVTCSVISNGNLSEFDVFVI: 0.122 ± 0.75; IFRSFLDG: -0.437 ± 0.3.
Next, TIQMFAVSTCCFFRFTLHWN: -0.598 ± 0.56.
Next, KVFWLYPMNLS: 0.278 ± 0.65; YSLYTNSHVPAWHSPSISHG: -0.38 ± 0.82.
In turn, SCKYSAQNLWHLFYRNSLSS came in with an amyloid nucleation score of -2.29 ± 2.1.
Regarding LYANNMLSGILCNGFSTITS, the amyloid nucleation score is -0.339 ± 0.63.
Next, MLRAGY: -0.292 ± 0.63.
Next, MGGSCTSEQYCDWANYGDVL: 0.125 ± 1.4; NSDLWIGVCAVLSGLMTIIG: 0.509 ± 0.64.
In turn, HVHTDSIDRVWRVLFTIKSK registered an amyloid nucleation score of 0.776 ± 0.61.
The same measure for LLLDLILY: -0.505 ± 0.72; for RDASRVVCMRPRWGPFQVVV: 0.222 ± 0.69.
Consider GPDRCDRWEPRCCAKSRRER, for which the amyloid nucleation score was -0.061 ± 0.42.
The same measure for TKGYLWPRKQTAFVWIAMCG: -0.187 ± 0.27.
The same measure for TEMDDF: 0.875 ± 0.54.
